Measurements reported in US7316915 (TANOX, dated 2008).
Where no end group is shown, it is not given here.

Tests used:
[1] = molecular target: T1, Bak (expressed in yeast, used as lysate) (Homo sapiens (Human), UniProt Q16611 1-211, limits assumed); test: GST fusion on glutathione-Sepharose column, yeast lysate expressing Bak, Western blot
T1 construct: also called full-length Bak
T1 sequence: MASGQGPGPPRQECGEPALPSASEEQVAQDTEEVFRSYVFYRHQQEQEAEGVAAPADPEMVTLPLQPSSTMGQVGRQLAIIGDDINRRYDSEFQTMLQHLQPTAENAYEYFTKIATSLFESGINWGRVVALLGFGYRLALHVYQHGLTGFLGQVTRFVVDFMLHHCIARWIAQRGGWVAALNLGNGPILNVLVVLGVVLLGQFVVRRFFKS

[2] = molecular target: T2, BakΔ3 (N-terminal deletion mutant of Bak, amino acids 96-210 of full-length Bak) (Homo sapiens (Human), UniProt Q16611 96-211); test: GST pull-down from Sf9 extract, immunoblot with anti-Bak
T2 construct: Produced in Sf9 cells by baculovirus and used as an NP-40 cell extract
T2 sequence: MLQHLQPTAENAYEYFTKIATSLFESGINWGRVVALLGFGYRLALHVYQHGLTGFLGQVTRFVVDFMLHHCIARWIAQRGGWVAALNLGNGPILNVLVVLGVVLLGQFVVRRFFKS

[3] = molecular target: Bcl2 expressed as a fusion protein with the binding domain (BD) of GAL4 (yeast, UniProt P04386 1-147; P10415 1-239, limits assumed); test: yeast two hybrid
[4] = molecular target: Bax expressed as a fusion protein with the binding domain (BD) of GAL4 (yeast, UniProt P04386 1-147; Q07812 1-192, limits assumed); test: yeast two hybrid
[5] = molecular target: T3, BBP expressed as a fusion protein with the binding domain (BD) of GAL4 (yeast; human, UniProt P04386 1-147); test: yeast two hybrid (GAL4 AD and BD fusions)
T3 construct: range 1-147; also called BBP-BD

[6] = molecular target: T4, Bak expressed as a fusion protein with the binding domain (BD) of GAL4 (yeast, UniProt P04386 1-147); test: yeast two hybrid (GAL4 AD and BD fusions)
T4 construct: range 1-147; Yeast two-hybrid bait; also called GAL4-Bak fusion protein

B1: gst fusion protein containing BBP-Loop1 (N-terminal 42 amino acid portion of BBP) (other)
chain: MAASSQGNFEGNFESLDLAEFAKKQPWWRKLFGQESGPSAEK
modifications: not fully specified (N-terminus); also: fused to glutathione-S-transferase (GST), not in chain
notes: It was subcloned into pGEX-5X in frame with gst; also called BBP-L1; gst-BBP-L1; not shown: glutathione-S-transferase (gst) as encoded by vector pGEX-5X (Pharmacia)
binding result [1]: binds

B2: gst fusion protein containing BBP-Loop2 (internal loop of BBP, amino acids 86 through 133) (other)
chain: HTGYIKVDWQRVEKDMKKAKEQLKIRKSNQIPTEVRSKAEEVVSFVKK
modifications: not fully specified (N-terminus); also: fused to glutathione-S-transferase (GST), not in chain
notes: It was subcloned into pGEX-5X in frame with gst; also called BBP-L2; gst-BBP-L2; not shown: glutathione-S-transferase (gst) as encoded by vector pGEX-5X (Pharmacia)
binding result [2]: no binding | binding result [1]: binds

B3: BBP expressed as a fusion protein with the activation domain (AD) of GAL4 (other, yeast)
chain: ANFNQSGNIADSSLSFTFTNSSNGPNLITTQTNSQALSQPIASSNVHDNFMNNEITASKIDDGNNSKPLSPGWTDQTAYNAFGITTGMFNTTTMDDVYNYLFDDEDTPPNPKKEMAASSQGNFEGNFESLDLAEFAKKQPWWRKLFGQESGPSAEKYSVATQLFIGGVTGWCTGFIFQKVGKLAATAVGGGFFLLQLANHTGYIKVDWQRVEKDMKKAKEQLKIRKSNQIPTEVRSKAEEVVSFVKKNVLVTGGFFGGFLLGMAS
notes: range 768-881; Yeast two-hybrid prey; also called BBP-AD
binding result [3]: no binding | binding result [4]: no binding | binding result [5]: binds | binding result [6]: binds

B4: gst fusion protein containing full-length BHRF-1 (other)
chain: MAYSTREILLALCIRDSRVHGNGTLHPVLELAARETPLRLSPEDTVVLRYHVLLEEIIERNSETFTETWNRFITHTEHVDLDFNSVFLEIFHRGDPSLGRALAWMAWCMHACRTLCCNQSTPYYVVDLSVRGMLEASEGLDGWIHQQGGWSTLIEDNIPGSRRFSWTLFLAGLTLSLLVICSYLFISRGRH
notes: not shown: glutathione-S-transferase (gst)
binding result [1]: binds
